Patent US6642007 (Pfizer, dated 2003)
Where a chain is given by its changes, count along the chain named. No end group written: not given here. *: point of attachment. Biotin = O=C1N[C@H]2[C@H](CS[C@H]2CCCCC(=O)*)N1

T1: biotinylated peptide Bt-AEGPPGPQG (SEQ ID NO: 14)
T1 construct: also called biotinylated peptide 040; peptide 040
T1 peptide: Biotin-AEGPPGPQG

T2: biotinylated peptide 225 (SEQ ID NO: 64) (biotinylated (position not given))
T2 construct: Collagen-related peptide fragment on streptavidin magnetic beads
T2 peptide: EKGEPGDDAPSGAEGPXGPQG

T3: biotinylated peptide of SEQ ID NO: 19
T3 construct: Captured on a streptavidin biosensor chip; also called biotinylated peptide 054
T3 peptide: Biotin-GEPGDDGPS

B1: monoclonal antibody 9A4 (antibody, V domains shown)
VH: QIQLVQSGPELKKPGETVKISCKASGYTFTDYSIHWVKQAPGKGLKWMGWINTETGEPTYADDFKGRFAFSLETSASTAYLQINNLKNEDTATYFCARGGSLDYWGQGTTLTVSS
VL: QIVLTQSPVFMSASPGEKVTMTCSASSSVSYMYWYQQKPGSSPRLLIHATSNLASGVPVRFSGGGSGTSYSLTISRMEAEDAATYYCQQWRSYTRTFGGGTKLEIIR
notes: also called mAb 9A4; 9A4 IgG
B2: 9A4 scFv (VL-linker-VH-FLAG tag) from p9A4IF-5 (scFv)
scFv: QIVLTQSPVFMSASPGEKVTMTCSASSSVSYMYWYQQKPGSSPRLLIHATSNLASGVPVRFSGGGSGTSYSLTISRMEAEDAATYYCQQWRSYTRTFGGGTKLEIILSADDAKKDAAKKDDAKKDDAKKDLEIQLVQSGPELKKPGETVKISCKASGYTFTDYSIHWVKQAPGKGLKWMGWINTETGEPTYADDFKGRFAFSLETSASTAYLQINNLKNEDTATYFCARGGSLDYWGQGTTLTVSSASDYKDDDDK
notes: Monomer purified from E. coli; also called 9A4IF-5 scFv; p9A4lF-5
B3: 9A4 scFv (VH-linker-VL-HIS-MYC tags) from p9A4ICAT7-1 (scFv)
scFv: QIQLVQSGPELKKPGETVKISCKASGYTFTDYSIHWVKQAPGKGLKWMGWINTETGEPTYADDFKGRFAFSLETSASTAYLQINNLKNEDTATYFCARGGSLDYWGQGTTLTVSSGGGGSGGGGSGGGGSQIVLTQSPVFMSASPGEKVTMTCSASSSVSYMYWYQQKPGSSPRLLIHATSNLASGVPVRFSGGGSGTSYSLTISRMEAEDAATYYCQQWRSYTRTFGGGTKLEIIAAAHHHHHHGAAEQKLISEEDLNGAA
notes: Monomer purified from E. coli TG1; also called 9A4ICAT7-1 scFv; p9A4lCAT7-1
B4: monoclonal antibody 5109 (antibody, V domains shown)
VH: EVQLVESGGGSVQPGGSLKLSCAASGFTFNTYGMSWVRQTPDKRLEWVATINSNGGLTFYADSVKGRFTISRDNAKNTLYLQMNRLKSGDSGMYYCVRGYSNYARWGQGALVTVSA
VL: DVVMTQTPLTLSVTIGQSASISCKSSQSLLGSDGLTYLIWLLQRPGQSPKRLIFLVSELDSGVPDRFTGSGSGTDFTLKISRVEAEDLGVYYCCQGTHFPHTFGAGTKLELK
B5: 9A4 scFv CDR3 VH mutant clone 5C (scFv)
scFv: B3 scFv with Y104S
notes: Derived from p9A4ICAT7-1
B6: 9A4 scFv CDR3 VH mutant clone 8D (scFv)
scFv: B3 scFv with Y104N
notes: Derived from p9A4ICAT7-1
B7: 9A4 scFv CDR3 VH mutant clone 10C (scFv)
scFv: B3 scFv with A97G, W105C
notes: Derived from p9A4ICAT7-1
B8: 9A4 scFv CDR3 VH mutant clone 13G (scFv)
scFv: B3 scFv with A97G, Y104N
notes: Derived from p9A4ICAT7-1
B9: 9A4 scFv CDR3 VH mutant clone 14B (scFv)
scFv: B3 scFv with Y104H
notes: Derived from p9A4ICAT7-1
B10: 9A4 scFv CDR3 VH mutant clone 15A (scFv)
scFv: B3 scFv with S101R
notes: Derived from p9A4ICAT7-1
B11: 9A4 scFv CDR3 VH mutant clone 18E (scFv)
scFv: B3 scFv with Y104V
notes: Derived from p9A4ICAT7-1
B12: 9A4 scFv CDR3 VH mutant clone 20B (scFv)
scFv: B3 scFv with A97G, S101N, Y104H, W105C
notes: Derived from p9A4ICAT7-1
B13: 9A4 scFv CDR3 VH mutant clone 24A (scFv)
scFv: B3 scFv with A97G, D103E
notes: Derived from p9A4ICAT7-1
B14: 9A4 scFv CDR3 VH mutant clone 38B (scFv)
scFv: B3 scFv with A97G, Y104S, W105C
notes: Derived from p9A4ICAT7-1

Molecular target: T1, biotinylated peptide Bt-AEGPPGPQG (SEQ …)
Assay: BIAcore, biotinylated peptide SEQ ID NO: 14 on streptavidin chip
Method: Positive wells in the ELISA were subjected to a second round of selection on the BIAcore™ system. Wells were sought that produced antibodies having slow off rates on the BIAcore™ system as determined using BIAevaluation™ version 2.1 software (Pharmacia Biosensor, Piscataway, N.J.). Streptavidin (Pierce Chemical) at 100 μg/ml was conjugated using the Pharmacia Amine Coupling Kit (Pharmacia Biosensor) to carboxylated dextran-coated biosensor chips (Pharmacia Biosensor) at a pH 4.0 using a flow rate of 5 μl/minute for 35 minutes. Typically, 2000 RU was added. Peptide (100 ng/ml) biotinylated on residue of 1 of SEQ ID NO: 14 as set forth in the Sequence Listing, was passed over the streptavidin chip at a flow rate of 100 μl/minute for 10 seconds. Candidate supernatants containing antibody were passed over the chip (2 μl/minute for 30 seconds) and the amount of added antibody noted. The buffer was changed to HBS (HEPES buffered saline, Pharmacia Biosensor), and the dissociation rate noted for the next 80 seconds. The chip was cleaned with 0.1 N HCl for 30 seconds between each run to remove residual antibody and to clear any nonspecific binding. The off-rates were determined using BIAevaluation™ kinetic analysis software version 2.1. Clones with the slowest off rates were selected for further analysis. These clones included 9A4, 11F2, and 3H10.
Binding to antigen was evaluated on the BlAcore™ system for both the p9A4lCAT7-1 and p9A4lF-5 scFv purified gene products as follows. A streptavidin chip was loaded with biotinylated peptide of SEQ ID NO: 14 as given in Example 1 above.
B1 showed a Kd of 120 nM and a koff of 0.0176 s⁻¹.
B2 showed a Kd of 110 nM.
B3 was tested, and the koff was 0.0012 s⁻¹.

Molecular target: T2, biotinylated peptide 225 (SEQ ID NO: 64)
Assay: told in words beside the Origen result
B4: binds.

Molecular target: T3, biotinylated peptide of SEQ ID NO: 19
Assay: ELISA-positive hybridoma supernatant, BIAcore over biotinylated peptide SEQ ID NO: 19 on streptavidin chip
Method: Positive wells were subjected to a second round of selection on the BlAcore™ system for those which had antibodies giving the slowest off-rates. Streptavidin (Pierce Chemical) at 100 µg/ml was conjugated using the Pharmacia Amine Coupling Kit (Pharmacia Biosensor) to carboxylated dextran coated biosensor chips (Pharmacia Biosensor) at pH 4.0 using a flow rate of 5 µl/minute for 35 minutes. Typically, 2000 RU was added. Peptide (100 ng/ml), biotinylated on residue 1 of SEQ ID NO: 19 as set forth in the Sequence Listing, was passed over the streptavidin chip at a flow rate of 100 µl/minute for 10 seconds. Supernatants containing antibody were passed over the chip (2 µl/minute for 30 seconds) and the amount of added antibody noted. The buffer was changed to HBS (Pharmacia Biosensor), and the dissociation rate noted for the next 80 seconds. The chip was cleaned with 0.1 N HCl for 30 seconds between each run to remove antibody and to get rid of any nonspecific binding. The off-rates were determined using the BlAevaluation™ software version 2.1.
B4: binds.

Molecular target: T1, biotinylated peptide Bt-AEGPPGPQG (SEQ …)
Assay: BIAcore, scFv over biotinylated peptide SEQ ID NO: 14 on streptavidin chip, dissociation 280 s
Method: Off-rates for the scFv constructs were measured by analysis of dissociation data obtained on the BlAcore™ system (Pharmacia Biosensor) with BlAevaluation™ version 2.1 software. To obtain the data on the BlAcore™ system, streptavidin surfaces on the BlAcore™ chips were prepared as described previously in Example 1. Biotinylated peptide (SEQ ID NO: 14) was bound to the prepared streptavidin surfaces to RU densities ranging from about 2–11 RU's/surface. The lower level of derivatization would help avoid getting erroneous off-rates that could be obtained if mass transport was an issue. Purified scFv's were injected over these surfaces to allow binding of the constructs for 60 seconds. PBS buffer alone was then substituted and the dissociation of scFv was allowed to proceed for an additional 280 sec. Off-rates were calculated from these dissociation data.
Binder B2 has a koff of 0.0048 s⁻¹.
B3 gave a koff of 0.003 s⁻¹.
Work on B5 yielded a koff of 0.0025 s⁻¹.
B6 showed a koff of 0.0104 s⁻¹.
With B7 the koff was 0.0094 s⁻¹.
In the case of B8, the koff is reported as 0.0103 s⁻¹.
Work on B9 yielded a koff of 0.0027 s⁻¹.
Binder B10 has a koff of 0.0035 s⁻¹.
B11 gave a koff of 0.014 s⁻¹.
B12 was tested, and the koff was 0.0028 s⁻¹.
B13 showed a koff of 0.0025 s⁻¹.
B14 gave a koff of 0.0026 s⁻¹.
